The target of one test is T1, human fibrinogen (human, UniProt P02671-2 20-644; P02675 31-491; P02679-2 27-437, biotin on hFg (which chain is not told) in the ELISA with immobilised MRP).
T1 construct: Fibrinogen Aα chain, human (63.5 kDa band); Fibrinogen Bβ chain, human (56 kDa band); Fibrinogen γ chain, human (47 kDa band); Three pairs of Aα, Bβ and γ chains; also called hFg; Fg; source: bought: Merck; copies: 2 + 2 + 2
T1 sequence (looked up) 1: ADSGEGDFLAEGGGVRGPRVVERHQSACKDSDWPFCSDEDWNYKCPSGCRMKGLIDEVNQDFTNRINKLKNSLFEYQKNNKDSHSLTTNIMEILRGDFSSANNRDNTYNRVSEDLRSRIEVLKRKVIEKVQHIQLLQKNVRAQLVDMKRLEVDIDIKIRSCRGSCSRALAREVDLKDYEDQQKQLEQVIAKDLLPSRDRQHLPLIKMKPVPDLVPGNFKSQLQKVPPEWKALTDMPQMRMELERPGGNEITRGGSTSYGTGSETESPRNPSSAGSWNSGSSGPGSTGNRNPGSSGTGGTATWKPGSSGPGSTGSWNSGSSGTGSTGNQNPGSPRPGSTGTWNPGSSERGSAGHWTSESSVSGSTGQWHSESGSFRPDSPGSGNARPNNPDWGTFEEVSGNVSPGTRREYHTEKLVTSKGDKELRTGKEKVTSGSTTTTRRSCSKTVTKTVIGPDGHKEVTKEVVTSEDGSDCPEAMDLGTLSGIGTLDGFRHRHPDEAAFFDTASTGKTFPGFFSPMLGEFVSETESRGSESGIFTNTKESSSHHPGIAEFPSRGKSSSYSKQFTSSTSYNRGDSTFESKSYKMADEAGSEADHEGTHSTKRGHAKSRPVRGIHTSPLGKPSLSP
T1 sequence (looked up) 2: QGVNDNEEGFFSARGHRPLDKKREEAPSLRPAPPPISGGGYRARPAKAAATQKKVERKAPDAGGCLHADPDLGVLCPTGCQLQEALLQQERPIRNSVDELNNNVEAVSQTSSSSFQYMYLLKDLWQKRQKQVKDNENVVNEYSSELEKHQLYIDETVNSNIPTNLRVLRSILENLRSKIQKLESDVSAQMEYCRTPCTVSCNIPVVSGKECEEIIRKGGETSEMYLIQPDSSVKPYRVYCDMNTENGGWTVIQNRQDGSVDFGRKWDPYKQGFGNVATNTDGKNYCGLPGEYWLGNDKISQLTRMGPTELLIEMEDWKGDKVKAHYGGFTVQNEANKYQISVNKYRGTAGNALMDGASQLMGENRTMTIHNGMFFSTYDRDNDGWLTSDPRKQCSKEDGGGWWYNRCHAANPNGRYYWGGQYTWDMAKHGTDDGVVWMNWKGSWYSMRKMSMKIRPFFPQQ
T1 sequence (looked up) 3: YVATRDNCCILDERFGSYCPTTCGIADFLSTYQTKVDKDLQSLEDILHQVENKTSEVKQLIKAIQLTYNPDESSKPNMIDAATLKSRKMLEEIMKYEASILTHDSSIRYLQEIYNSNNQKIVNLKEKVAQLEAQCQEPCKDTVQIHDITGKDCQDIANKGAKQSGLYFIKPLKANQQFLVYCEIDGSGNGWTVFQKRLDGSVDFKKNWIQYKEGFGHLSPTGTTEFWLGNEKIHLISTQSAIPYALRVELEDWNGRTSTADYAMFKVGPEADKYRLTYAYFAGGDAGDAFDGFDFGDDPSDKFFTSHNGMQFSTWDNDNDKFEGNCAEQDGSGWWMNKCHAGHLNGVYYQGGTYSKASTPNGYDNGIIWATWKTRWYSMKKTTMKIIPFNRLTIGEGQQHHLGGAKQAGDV
The test is described as follows: BLI; biotinylated MRP-N proteins immobilised on streptavidin biosensors, hFg, Fg-D or Fg-E as analyte, PBST, 1:1 binding model. To be noted: both partners purified. On the technique in general: Biolayer interferometry detects binding as a change in optical thickness at a sensor tip.

The target of test [1] is T2, hisMRP-N (a.a. 48-721, the N-terminus of muramidase-released protein) (Streptococcus suis serotype 2 strain …, UniProt P32653 48-721, biotin (in the far-Western and on the BLI biosensors)).
T2 chain: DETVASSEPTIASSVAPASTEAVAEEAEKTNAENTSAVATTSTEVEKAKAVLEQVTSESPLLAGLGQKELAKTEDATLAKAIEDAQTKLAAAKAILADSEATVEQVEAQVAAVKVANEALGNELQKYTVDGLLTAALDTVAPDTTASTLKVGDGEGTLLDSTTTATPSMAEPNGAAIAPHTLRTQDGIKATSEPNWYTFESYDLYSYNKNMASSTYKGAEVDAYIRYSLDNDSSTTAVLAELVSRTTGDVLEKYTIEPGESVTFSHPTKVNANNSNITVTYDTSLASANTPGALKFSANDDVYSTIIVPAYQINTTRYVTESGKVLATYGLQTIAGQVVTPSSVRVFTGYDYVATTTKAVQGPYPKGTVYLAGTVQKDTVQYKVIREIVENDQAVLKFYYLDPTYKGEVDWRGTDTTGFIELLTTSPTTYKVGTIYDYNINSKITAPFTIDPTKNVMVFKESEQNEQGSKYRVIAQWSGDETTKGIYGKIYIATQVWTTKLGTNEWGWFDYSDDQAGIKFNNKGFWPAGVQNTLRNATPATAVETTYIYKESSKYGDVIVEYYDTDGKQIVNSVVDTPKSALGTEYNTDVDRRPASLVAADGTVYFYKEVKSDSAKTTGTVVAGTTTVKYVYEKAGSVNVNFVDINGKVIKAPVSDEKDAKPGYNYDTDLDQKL
Description: BLI.

B1: hisMRP-N (a.a. 48-721, the N-terminus of muramidase-released protein) (domain or fragment)
chain: T2 chain
modifications: biotin (in the far-Western and on the BLI biosensors)
notes: Muramidase-released protein (MRP) of Streptococcus suis serotype 2 strain 05ZYH33, gene SSU05_0753, residues 48-721; also called hisMRP-N_(48-721); source: cloned into pET-28a, expressed, purified by Ni-chelating chromatography
B1 gave an equilibrium dissociation constant (Kd) with human fibrinogen of 340 nM.

B2: human fibrinogen (complex)
chain 1: T1 sequence (looked up) 1
chain 2: T1 sequence (looked up) 2
chain 3: T1 sequence (looked up) 3
modifications: biotin on hFg (which chain is not told) in the ELISA with immobilised MRP
Consider B2, for which the off-rate constant (koff) in test [1] amounted to 0.0989 s⁻¹.

By Kd is commonly meant the constant that tells how readily two partners part at equilibrium. Usually koff stands for the rate constant with which the complex falls apart.

(Values after PMC4882601, “Binding of Human Fibrinogen to MRP Enhances Streptococcus suis Survival in Host Blood in a αXβ2 Integrin-dependent Manner” (Scientific Reports, 2016).)
